Experimental data: IntAct's records for PubMed 32296183

B1: Very-long-chain enoyl-CoA reductase (Homo sapiens), Q9NZ01 (parent)
chain: MKHYEVEILDAKTREKLCFLDKVEPHATIAEIKNLFTKTHPQWYPARQSLRLDPKGKSLKDEDVLQKLPVGTTATLYFRDLGAQISWVTVFLTEYAGPLFIYLLFYFRVPFIYGHKYDFTSSRHTVVHLACICHSFHYIKRLLETLFVHRFSHGTMPLRNIFKNCTYYWGFAAWMAYYINHPLYTPPTYGAQQVKLALAIFVICQLGNFSIHMALRDLRPAGSKTRKIPYPTKNPFTWLFLLVSCPNYTYEVGSWIGFAIMTQCLPVALFSLVGFTQMTIWAKGKHRSYLKEFRDYPPLRMPIIPFLL
partner: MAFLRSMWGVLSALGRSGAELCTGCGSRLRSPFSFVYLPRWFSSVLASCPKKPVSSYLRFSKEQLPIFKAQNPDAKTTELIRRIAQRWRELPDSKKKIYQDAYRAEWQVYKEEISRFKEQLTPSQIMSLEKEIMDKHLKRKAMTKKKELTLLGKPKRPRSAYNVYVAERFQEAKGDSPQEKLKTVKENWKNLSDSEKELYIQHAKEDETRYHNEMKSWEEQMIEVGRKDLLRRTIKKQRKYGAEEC
B2: Golgi SNAP receptor complex member 2 (Homo sapiens), O14653 (parent)
chain: MDPLFQQTHKQVHEIQSCMGRLETADKQSVHIVENEIQASIDQIFSRLERLEILSSKEPPNKRQNARLRVDQLKYDVQHLQTALRNFQHRRHAREQQERQREELLSRTFTTNDSDTTIPMDESLQFNSSLQKVHNGMDDLILDGHNILDGLRTQRLTLKGTQKKILDIANMLGLSNTVMRLIEKRAFQDKYFMIGGMLLTCVVMFLVVQYLT
partner: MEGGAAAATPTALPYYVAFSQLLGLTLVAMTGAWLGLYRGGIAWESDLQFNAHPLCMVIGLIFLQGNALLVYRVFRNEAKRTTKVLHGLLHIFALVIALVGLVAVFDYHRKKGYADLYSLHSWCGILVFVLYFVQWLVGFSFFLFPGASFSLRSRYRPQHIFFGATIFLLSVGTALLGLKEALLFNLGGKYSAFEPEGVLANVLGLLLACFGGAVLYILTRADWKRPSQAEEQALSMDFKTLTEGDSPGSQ
B3: Golgi SNAP receptor complex member 2 (Homo sapiens), O14653 (parent)
chain: B2 chain
partner: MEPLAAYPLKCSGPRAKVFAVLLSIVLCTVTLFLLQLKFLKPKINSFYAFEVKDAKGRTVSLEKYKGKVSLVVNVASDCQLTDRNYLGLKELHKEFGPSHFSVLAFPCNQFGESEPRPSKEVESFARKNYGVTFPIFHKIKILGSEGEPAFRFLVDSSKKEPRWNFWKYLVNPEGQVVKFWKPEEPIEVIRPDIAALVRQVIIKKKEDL
B4: Very-long-chain enoyl-CoA reductase (Homo sapiens), Q9NZ01 (parent)
chain: B1 chain
partner: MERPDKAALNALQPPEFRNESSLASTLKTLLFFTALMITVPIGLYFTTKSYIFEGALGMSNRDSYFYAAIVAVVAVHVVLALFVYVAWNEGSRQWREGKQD
B5: Golgi SNAP receptor complex member 2 (Homo sapiens), O14653 (parent)
chain: B2 chain
partner: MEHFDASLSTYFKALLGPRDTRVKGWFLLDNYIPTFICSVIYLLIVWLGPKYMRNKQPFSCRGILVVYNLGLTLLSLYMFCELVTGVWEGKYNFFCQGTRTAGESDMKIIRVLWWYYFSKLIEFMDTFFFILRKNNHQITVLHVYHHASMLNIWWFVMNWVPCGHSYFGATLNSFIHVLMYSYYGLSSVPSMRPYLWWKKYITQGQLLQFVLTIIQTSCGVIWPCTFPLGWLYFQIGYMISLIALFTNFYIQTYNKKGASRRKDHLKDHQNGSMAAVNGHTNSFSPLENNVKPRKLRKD
B6: Catenin alpha-3 (Homo sapiens), Q9UI47-2 (parent)
chain: MSAETPITLNIDPQDLQVQTFTVEKLLEPLIIQVTTLVNCPQNPSSRKKGRSKRASVLLASVEEATWNLLDKGEKIAQEATVLKDELTASLEEVRKESEALKVSAERFTDDPCFLPKREAVVQAARALLAAVTRLLILADMIDVMCLLQHVSAFQRTFESLKNVANKSDLQKTYQKLGKELENLDYLAFKRQQDLKSPNQRDEIAGARASLKENSPLLHSICSACLEHSDVASLKASKDTVCEEIQNALNVISNASQGIQNMTTPPEPQAATLGSALDELENLIVLNPLTVTEEEIRPSLEKRLEAIISGAALLADSSCTRDLHRERIIAECNAIRQALQDLLSEYMNNAGKKERSNTLNIALDNMCKKTRDLRRQLRKAIIDHVSDSFLDTTVPLLVLIEAAKNGREKEIKEYAAIFHEHTSRLVEVANLACSMSTNEDGIKIVKIAANHLETLCPQIINAALALAARPKSQAVKNTMEMYKRTWENHIHVLTEAVDDITSIDDFLAVSGMFLFF
partner: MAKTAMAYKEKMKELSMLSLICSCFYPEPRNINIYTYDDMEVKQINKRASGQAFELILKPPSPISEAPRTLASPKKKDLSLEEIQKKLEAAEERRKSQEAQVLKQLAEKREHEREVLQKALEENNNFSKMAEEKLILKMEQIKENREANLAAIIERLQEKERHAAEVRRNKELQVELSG
B7: Golgi SNAP receptor complex member 2 (Homo sapiens), O14653 (parent)
chain: B2 chain
partner: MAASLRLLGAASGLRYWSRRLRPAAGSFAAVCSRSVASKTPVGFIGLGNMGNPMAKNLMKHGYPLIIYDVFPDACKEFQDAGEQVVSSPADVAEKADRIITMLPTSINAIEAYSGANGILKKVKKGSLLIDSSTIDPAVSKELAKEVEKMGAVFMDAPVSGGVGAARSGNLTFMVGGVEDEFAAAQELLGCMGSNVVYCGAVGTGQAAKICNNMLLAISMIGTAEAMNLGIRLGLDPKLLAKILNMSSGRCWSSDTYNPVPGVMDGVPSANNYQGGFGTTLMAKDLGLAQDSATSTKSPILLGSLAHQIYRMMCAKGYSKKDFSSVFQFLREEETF

Variants of: B1
Conditions: with tfam_human TFAM

| effect of a mutation on the interaction | Variant |
| --- | --- |
| disrupting interaction strength | MKHYEVEILDAKTREKLCFLDKVEPHATIAEIKNLFTKTHPQWYPARQSLRLDPKGKSLKDEDVLQKLPVGTTATLYFRDLGAQISWVTVFLTEYAGPLFIYLLFYFRVPFIYGHKYDFTSSRHTVVHLACICHSFHYIKRLLETLFVHRFSHGTMPLRNIFKNCTYYWGFAAWMAYYINHLLYTPPTYGAQQVKLALAIFVICQLGNFSIHMALRDLRPAGSKTRKIPYPTKNPFTWLFLLVSCPNYTYEVGSWIGFAIMTQCLPVALFSLVGFTQMTIWAKGKHRSYLKEFRDYPPLRMPIIPFLL [P182L] |

Variants of: B2
Conditions: with cy561_human CYB561, P49447

| effect of a mutation on the interaction | Variant |
| --- | --- |
| with no effect | MDPLFQQTHKQVHEIQSCMGRLETADKQSVHIVENEIQASIDQIFSRLERLEILSSKEPPNKRQNARLRVDQLKYDVQHLQTALRNFQHRRHAREQQERQREELLSRTFTTNDSDTTIPMDESLQFNSSLQKVHNGMDDLILDWHNILDGLRTQRLTLKGTQKKILDIANMLGLSNTVMRLIEKRAFQDKYFMIGGMLLTCVVMFLVVQYLT [G144W] |

Variants of: B3
Conditions: with gpx8_human GPX8, Q8TED1

| effect of a mutation on the interaction | Variant |
| --- | --- |
| with no effect | MDPLFQQTHKQVHEIQSCMGRLETADKQSVHIVENEIQASIDQIFSRLERLEILSSKEPPNKRQNARLRVDQLKYDVQHLQTALRNFQHRRHAREQQERQREELLSRTFTTNDSDTTIPMDESLQFNSSLQKVHNGMDDLILDWHNILDGLRTQRLTLKGTQKKILDIANMLGLSNTVMRLIEKRAFQDKYFMIGGMLLTCVVMFLVVQYLT [G144W] |

Variants of: B4
Conditions: with vma21_human VMA21, Q3ZAQ7

| effect of a mutation on the interaction | Variant |
| --- | --- |
| disrupting interaction strength | MKHYEVEILDAKTREKLCFLDKVEPHATIAEIKNLFTKTHPQWYPARQSLRLDPKGKSLKDEDVLQKLPVGTTATLYFRDLGAQISWVTVFLTEYAGPLFIYLLFYFRVPFIYGHKYDFTSSRHTVVHLACICHSFHYIKRLLETLFVHRFSHGTMPLRNIFKNCTYYWGFAAWMAYYINHLLYTPPTYGAQQVKLALAIFVICQLGNFSIHMALRDLRPAGSKTRKIPYPTKNPFTWLFLLVSCPNYTYEVGSWIGFAIMTQCLPVALFSLVGFTQMTIWAKGKHRSYLKEFRDYPPLRMPIIPFLL [P182L] |

Variants of: B5
Conditions: with elov5_human ELOVL5, Q9NYP7

| effect of a mutation on the interaction | Variant |
| --- | --- |
| with no effect | MDPLFQQTHKQVHEIQSCMGRLETADKQSVHIVENEIQASIDQIFSRLERLEILSSKEPPNKRQNARLRVDQLKYDVQHLQTALRNFQHRRHAREQQERQREELLSRTFTTNDSDTTIPMDESLQFNSSLQKVHNGMDDLILDWHNILDGLRTQRLTLKGTQKKILDIANMLGLSNTVMRLIEKRAFQDKYFMIGGMLLTCVVMFLVVQYLT [G144W] |

Variants of: B6
Conditions: with stmn2_human STMN2, Q93045

| effect of a mutation on the interaction | Variant |
| --- | --- |
| with no effect | MSAETPITLNIDPQDLQVQTFTVEKLLEPLIIQVTTLVNCPQNPSSRKKGRSKRASVLLASVEEATWNLLDKGEKIAQEATVLKDELTASLEEDRKESEALKVSAERFTDDPCFLPKREAVVQAARALLAAVTRLLILADMIDVMCLLQHVSAFQRTFESLKNVANKSDLQKTYQKLGKELENLDYLAFKRQQDLKSPNQRDEIAGARASLKENSPLLHSICSACLEHSDVASLKASKDTVCEEIQNALNVISNASQGIQNMTTPPEPQAATLGSALDELENLIVLNPLTVTEEEIRPSLEKRLEAIISGAALLADSSCTRDLHRERIIAECNAIRQALQDLLSEYMNNAGKKERSNTLNIALDNMCKKTRDLRRQLRKAIIDHVSDSFLDTTVPLLVLIEAAKNGREKEIKEYAAIFHEHTSRLVEVANLACSMSTNEDGIKIVKIAANHLETLCPQIINAALALAARPKSQAVKNTMEMYKRTWENHIHVLTEAVDDITSIDDFLAVSGMFLFF [V94D] |

Variants of: B7
Conditions: with 3hidh_human HIBADH

| effect of a mutation on the interaction | Variant |
| --- | --- |
| disrupting interaction strength | MDPLFQQTHKQVHEIQSCMGRLETADKQSVHIVENEIQASIDQIFSRLERLEILSSKEPPNKRQNARLRVDQLKYDVQHLQTALRNFQHRRHAREQQERQREELLSRTFTTNDSDTTIPMDESLQFNSSLQKVHNGMDDLILDWHNILDGLRTQRLTLKGTQKKILDIANMLGLSNTVMRLIEKRAFQDKYFMIGGMLLTCVVMFLVVQYLT [G144W] |
